From the Immune Epitope Database (IEDB)

Assays:
[1] = molecular target: HLA-A*69:01; assay: IEDB peptide-MHC binding, purified MHC/competitive/fluorescence; filed as Kd, often an IC50 or EC50 that approximates it; ≥ and ≤ were set here for values at or beyond the usual limits of such assays; conditions: source organism: Zaire ebolavirus
[2] = molecular target: HLA-B*27:03; assay: as above; conditions: source organism: Zaire ebolavirus
[3] = molecular target: HLA-B*39:01; assay: as above; conditions: source organism: Zaire ebolavirus
[4] = molecular target: HLA-B*18:01; assay: as above; conditions: source organism: Zaire ebolavirus
[5] = molecular target: HLA-B*57:01; assay: as above; conditions: source organism: Zaire ebolavirus
[6] = molecular target: HLA-A*02:01; assay: as above; conditions: source organism: Zaire ebolavirus
[7] = molecular target: HLA-A*02:11; assay: IEDB peptide-MHC binding, purified MHC/direct/fluorescence; filed as Kd, often an IC50 or EC50 that approximates it; ≥ and ≤ were set here for values at or beyond the usual limits of such assays; conditions: source organism: Zaire ebolavirus
[8] = molecular target: HLA-A*02:19; assay: as above; conditions: source organism: Zaire ebolavirus
[9] = molecular target: HLA-A*02:12; assay: as above; conditions: source organism: Zaire ebolavirus
[10] = molecular target: HLA-B*15:01; assay: as above; conditions: source organism: Reston ebolavirus - Reston
[11] = molecular target: HLA-A*03:01; assay: as above; conditions: source organism: Zaire ebolavirus
[12] = molecular target: HLA-A*02:03; assay: as above; conditions: source organism: Zaire ebolavirus
[13] = molecular target: HLA-A*02:16; assay: as above; conditions: source organism: Zaire ebolavirus
[14] = molecular target: HLA-A*68:02; assay: as above
[15] = molecular target: HLA-A*69:01; assay: as above; conditions: source organism: Vibrio vulnificus
[16] = molecular target: HLA-B*15:09; assay: as above; conditions: source organism: Vibrio vulnificus CMCP6
[17] = molecular target: HLA-B*40:01; assay: as above
[18] = molecular target: HLA-A*26:01; assay: as above; conditions: source organism: Vibrio vulnificus CMCP6
[19] = molecular target: HLA-A*01:01; assay: as above; conditions: source organism: Vibrio vulnificus
[20] = molecular target: HLA-B*39:01; assay: as above; conditions: source organism: Vibrio vulnificus CMCP6
[21] = molecular target: HLA-A*31:01; assay: as above; conditions: source organism: Vibrio vulnificus
[22] = molecular target: HLA-A*11:01; assay: as above; conditions: source organism: Vibrio vulnificus
[23] = molecular target: HLA-B*15:17; assay: as above; conditions: source organism: Vibrio vulnificus
[24] = molecular target: HLA-B*57:01; assay: as above; conditions: source organism: Vibrio vulnificus
[25] = molecular target: HLA-B*07:02; assay: as above; conditions: source organism: Vibrio vulnificus
[26] = molecular target: HLA-B*27:05; assay: as above; conditions: source organism: Vibrio vulnificus
[27] = molecular target: HLA-B*58:01; assay: as above; conditions: source organism: Vibrio vulnificus
[28] = molecular target: HLA-B*48:01; assay: as above; conditions: source organism: Vibrio vulnificus
[29] = molecular target: HLA-B*44:02; assay: as above; conditions: source organism: Vibrio vulnificus
[30] = molecular target: HLA-A*02:01; assay: as above; conditions: source organism: Vibrio vulnificus
[31] = molecular target: HLA-B*15:42; assay: IEDB peptide-MHC binding, purified MHC/competitive/fluorescence; filed as Kd, often an IC50 or EC50 that approximates it; ≥ and ≤ were set here for values at or beyond the usual limits of such assays; conditions: source organism: Zaire ebolavirus
[32] = molecular target: HLA-B*83:01; assay: as above; conditions: source organism: Zaire ebolavirus
[33] = molecular target: HLA-A*26:01; assay: as above; conditions: source organism: Zaire ebolavirus
[34] = molecular target: HLA-B*46:01; assay: as above; conditions: source organism: Zaire ebolavirus
[35] = molecular target: HLA-B*15:01; assay: as above; conditions: source organism: Zaire ebolavirus
[36] = molecular target: HLA-B*51:01; assay: as above; conditions: source organism: Zaire ebolavirus
[37] = molecular target: HLA-B*45:06; assay: as above; conditions: source organism: Zaire ebolavirus
[38] = molecular target: HLA-A*24:03; assay: IEDB peptide-MHC binding, purified MHC/direct/fluorescence; filed as Kd, often an IC50 or EC50 that approximates it; ≥ and ≤ were set here for values at or beyond the usual limits of such assays; conditions: source organism: Zaire ebolavirus
[39] = source organism: Zaire ebolavirus
[40] = source organism: Vibrio vulnificus

HLPGFGTAF was tested, and the Kd [1] was at least 20 µM, the Kd [2] was at least 20 µM and the Kd [3] was at least 20 µM. It also gave a Kd [4] of at least 20 µM, a Kd [5] of at least 20 µM and a Kd [6] of at least 20 µM. The Kd [7] was at least 20 µM, the Kd [8] was at least 20 µM and the Kd [9] was at least 20 µM. It also gave a Kd [10] of 72 nM, a Kd [11] of at least 20 µM and a Kd [12] of at least 20 µM. It also gave a Kd [13] of at least 20 µM and a Kd [14, 39] of at least 20 µM.
IEFIEVVRL showed a Kd [15] of at least 20 µM, a Kd [16] of at least 20 µM and a Kd [17, 40] of 37.7 nM. The Kd [18] was at least 20 µM, the Kd [19] was at least 20 µM and the Kd [20] was at least 20 µM. The Kd [21] was at least 20 µM, the Kd [22] was at least 20 µM and the Kd [23] was at least 20 µM. For the same sequence, the Kd [24] was at least 20 µM, the Kd [25] was at least 20 µM and the Kd [26] was at least 20 µM. The Kd [27] was at least 20 µM, the Kd [28] was at least 20 µM and the Kd [14, 40] was at least 20 µM. The Kd [29] was at least 20 µM and the Kd [30] was at least 20 µM.
For LEARVNLSV, the Kd [1] was at least 20 µM, the Kd [31] was at least 5 µM and the Kd [2] was at least 20 µM. The Kd [32] was at least 5 µM, the Kd [33] was at least 20 µM and the Kd [34] was at least 20 µM. It also gave a Kd [3] of at least 20 µM, a Kd [4] of at least 20 µM and a Kd [35] of at least 20 µM. The Kd [5] was at least 20 µM, the Kd [36] was at least 20 µM and the Kd [37] was at least 5 µM. For the same sequence, the Kd [6] was at least 20 µM, the Kd ([17]; source organism: Sudan ebolavirus - Maleo (1979)) was 2340 nM and the Kd [8] was at least 20 µM. For the same sequence, the Kd [9] was at least 20 µM, the Kd [38] was at least 20 µM and the Kd [11] was at least 20 µM. For the same sequence, the Kd [12] was at least 20 µM and the Kd [14, 39] was at least 20 µM.
